These results are taken from the supplement of paper PMC12042874.

This data set is described as follows: amyloid nucleation score (Sup35N fusion, yeast selection) (log enrichment); library NNK3; higher = more nucleation; inactive = no reads after selection. An outline of the steps: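 The nucleation score is the DiMSum log enrichment of output over input reads, centred on the mode score of non-aggregating sequences. Only sequences with 100 or more input reads were scored, using Illumina sequencing of input and output plasmid inserts. Psi-negative yeast expressing Sup35N fused to peptides of 20 random codons were induced 24 hours with 100 μM copper sulfate and grown 7 days at 30°C on medium lacking adenine and uracil.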

± gives the uncertainty stated by the source.

Take IRCMSLYLHNGGVYRS: the amyloid nucleation score was 1.72 ± 0.069.

For the substance YSSGGYLTRVRRKGSMYRAL, the amyloid nucleation score result is “inactive”.

Consider KLRVFV, for which the amyloid nucleation score entry is “inactive”.

With IPERMRWVWEVTRAYNNYAW, the amyloid nucleation score entry was “inactive”.

Take VDNNHYQRKSKGFGVAGLIR: the amyloid nucleation score result is “inactive”.

FSVSASEKHFFSCVMLYCVS: the amyloid nucleation score was determined as 0.935 ± 0.1.

For the substance MRSTNLACAGMHIN, the amyloid nucleation score result was “inactive”.

As for TKCTYKLGYTLYTGVKDVVR, the amyloid nucleation score entry was “inactive”.

VCFRNAFFHCSQMRTCNRVI returned an amyloid nucleation score of 0.262 ± 0.74.

Consider IILQNFPNRKYMCLGAKMAS, for which the amyloid nucleation score entry was “inactive”.

Turning to MGGLIFVSLKAWSIILHYNK, the amyloid nucleation score result was “inactive”.

With MLGDLAYCGYMSSAGVGSLI, the amyloid nucleation score result is “inactive”.

TLRMTWALSIRLSPLL: the amyloid nucleation score result is “inactive”.

In turn, VSFEYTGEYLCSNVRATDLL yielded an amyloid nucleation score of 0.366 ± 0.69.

Take VILLSLAY: the amyloid nucleation score entry is “inactive”.

Regarding ILRPPKAA, the amyloid nucleation score result is “inactive”.

For SLSSWLWVVLIVHCMSGRNS, the amyloid nucleation score result was “inactive”.

WAYMVNFFRTNLICEGWFDG showed an amyloid nucleation score of -0.841 ± 2.5.

In the case of SRCNVYKKVVAYVLRRLTPE, the amyloid nucleation score stood at 0.166 ± 0.66.

As to LGIGVKYSTGWCFVIMSSAM, the amyloid nucleation score entry is “inactive”.

For NQSCFMSAGNGSF, the amyloid nucleation score result was “inactive”.

Take FSCCITNPTYTYCWEMVGVS: the amyloid nucleation score entry was “inactive”.

In the case of SSLLANRYVWLDKLRHWHWR, the amyloid nucleation score result was “inactive”.

On to LRFMRSI, for which the amyloid nucleation score result was “inactive”.

For GKKMKEGCSSNISIVELSRN, the amyloid nucleation score entry was “inactive”.

As to FSFYFQDNTIKRWEAIED, the amyloid nucleation score result was “inactive”.

On to SCRFRVLRVFLGQTMYSSSI, for which the amyloid nucleation score result is “inactive”.

On to RRNEFVLWYLGDTSWYVWFS, for which the amyloid nucleation score came to 0.268 ± 0.27.

Turning to KLFVVHSREGEFIFSI, the amyloid nucleation score entry was “inactive”.

Regarding LIYCYMFMITAVGRACMPCR, the amyloid nucleation score result was “inactive”.

On to YSDKDSLGSGNSFFSFSEKW, for which the amyloid nucleation score entry is “inactive”.

Substance TLWCNLSSGMMNFPTASRNL registered an amyloid nucleation score of 1 ± 0.091.

VMSSMWLAGQTWLSYNCICD came in with an amyloid nucleation score of 2.35 ± 0.075.

For the substance LQNVGD, the amyloid nucleation score entry is “inactive”.

In the case of TYLVNSDMMGDRIFGACRDV, the amyloid nucleation score result is “inactive”.

As to FWLRAVSLSWLMIEKKYMLR, the amyloid nucleation score entry is “inactive”.

Take SKVWRYI: the amyloid nucleation score result was “inactive”.

Take AFPCFIVY: the amyloid nucleation score result is “inactive”.

Regarding GKYCLNDSCPFHY, the amyloid nucleation score entry was “inactive”.

For PVSII, the amyloid nucleation score entry was “inactive”.

Take TNYFESFY: the amyloid nucleation score was -0.052 ± 1.2.

RKNVELANPLFTSPWLNIMY: the amyloid nucleation score entry is “inactive”.

Turning to MWLRFKDFVVRWN, the amyloid nucleation score result is “inactive”.

Turning to WTKKFRVMTACLLEWYVDEK, the amyloid nucleation score entry is “inactive”.

SMGTFNMVRLSGTWGMSAMY displayed an amyloid nucleation score of 0.757 ± 0.15.

Substance KSFWVHMTGAFVCARYWCLP returned an amyloid nucleation score of 0.97 ± 0.17.

TVICISHTFSGHCLSSYEVW: the amyloid nucleation score entry was “inactive”.

Regarding CIKTCSCLSLPGLRFSPAIS, the amyloid nucleation score result was “inactive”.

For LFLFESQTCDSRVQNCISFG, the amyloid nucleation score result was “inactive”.

For the substance NWYSLKGVISNFSAVFSHGY, the amyloid nucleation score result was “inactive”.

Turning to VDVVLGMSIG, the amyloid nucleation score result was “inactive”.

As to IRYCGHIRTGCFRLISDLF, the amyloid nucleation score result is “inactive”.

Consider IFCYPQAQS, for which the amyloid nucleation score result was “inactive”.

PVLSYSVLRYL: the amyloid nucleation score entry is “inactive”.

As for GTRLRVGILIPRWDSGTFGF, the amyloid nucleation score result was “inactive”.

SLMSSRSCVTRTLLARQVYL: the amyloid nucleation score result is “inactive”.

Take LYNGGI: the amyloid nucleation score result was “inactive”.

As for SYPGRLYSSGYDCVYSNRSR, the amyloid nucleation score entry is “inactive”.

As to SVLSVV, the amyloid nucleation score result is “inactive”.

For the substance TKGNCSAHPRRL, the amyloid nucleation score was -0.581 ± 1.4.

In the case of FMGADVAQRMFYKSANGCEW, the amyloid nucleation score result was “inactive”.

For the substance QNNRHISHLGLQGDEQALVY, the amyloid nucleation score entry was “inactive”.

TAQTNPGVYYS: the amyloid nucleation score result is “inactive”.

On to FFLNGVCDCLRIPCTNVYLY, for which the amyloid nucleation score result was “inactive”.

IVLNKSILYADTCPLFPTMR came in with an amyloid nucleation score of 0.655 ± 0.11.

The substance SNACCGWAICCSPCGGKGVS showed an amyloid nucleation score of 1.45 ± 0.13.

Turning to VHYWCGTQVVA, the amyloid nucleation score result was “inactive”.

With SFSIDLMTSLSWHLLSCRTF, the amyloid nucleation score result is “inactive”.

SLLCNHFPGHI: the amyloid nucleation score result was “inactive”.

Regarding YPLNLYYQAFYSLIGLVIPP, the amyloid nucleation score result is “inactive”.

On to WSPGESNTLVGVCIEDALRS, for which the amyloid nucleation score entry was “inactive”.

Take YSEFPPTSKQ: the amyloid nucleation score result is “inactive”.

As for YDRVSMGRFIKR, the amyloid nucleation score entry was “inactive”.

In the case of IKNEQSARRGASSCGGTADK, the amyloid nucleation score entry is “inactive”.

As for KIYWGATLNQTSYRVAVCLT, the amyloid nucleation score result is “inactive”.

On to ANCCYPDLSCYVLYCGSSCL, for which the amyloid nucleation score was 2.41 ± 0.076.

As to VVEGSILACVNRGGKKYYDC, the amyloid nucleation score result was “inactive”.

KYNAIVLVYPKSADCVKTLM gave an amyloid nucleation score of 0.387 ± 0.36.

With DDLIGSIFKFLVLSRGKT, the amyloid nucleation score result was “inactive”.

Regarding FSMAFYMYG, the amyloid nucleation score was determined as 0.163 ± 0.25.

As to TLVSQMPCNM, the amyloid nucleation score entry was “inactive”.

With TRCSG, the amyloid nucleation score entry was “inactive”.

SHCVSTT: the amyloid nucleation score entry is “inactive”.

Take SSIDEIGSFV: the amyloid nucleation score entry is “inactive”.

WRRWQSRCGSLLRYSKETLN: the amyloid nucleation score entry was “inactive”.

For RMKFGADIAVVHVCPMEFSG, the amyloid nucleation score entry is “inactive”.

On to SDFAIWKDFDG, for which the amyloid nucleation score was 1.21 ± 0.1.

Take PTILWAQYAGWGSKVWPPRL: the amyloid nucleation score result was “inactive”.

With LEFVY, the amyloid nucleation score turned out to be 0.238 ± 0.52.

With RGGRTSVLLNRSMLVEK, the amyloid nucleation score entry is “inactive”.

As for SNRGYTKRYF, the amyloid nucleation score entry was “inactive”.

On to NVSQFISIGVVITFKMLLVW, for which the amyloid nucleation score is -0.478 ± 0.68.

LLWEWYFI: the amyloid nucleation score result was “inactive”.

With RSAERRAQNSNFKLVDLGRN, the amyloid nucleation score result was “inactive”.

For the substance EDNTKLRSWGELLGVCGKLS, the amyloid nucleation score entry was “inactive”.

YRDRIGWQVVISII returned an amyloid nucleation score of -0.087 ± 0.27.

On to SFRRLDGNRNLFSSCRVNGL, for which the amyloid nucleation score entry is “inactive”.

As to GTYFSCVYGTKKL, the amyloid nucleation score entry is “inactive”.

Turning to VTVLQM, the amyloid nucleation score result is “inactive”.

TWILFFVN: the amyloid nucleation score was 1.78 ± 0.062.

For EVCWVSEWQLIVMRFSCTWL, the amyloid nucleation score entry was “inactive”.

Take RWELGIQALVR: the amyloid nucleation score result was “inactive”.

Take FSPTIGTTWDTLMF: the amyloid nucleation score entry was “inactive”.

GNITTRLHFFTNGFRPSFHG: the amyloid nucleation score entry is “inactive”.

For the substance GFGQATTCLSLNSACF, the amyloid nucleation score turned out to be 0.544 ± 0.18.

Substance AVLCELVQDMFSLGVYVCHE had an amyloid nucleation score of 0.531 ± 0.32.

EGSYVYIKDYI: the amyloid nucleation score result is “inactive”.

For the substance SLTYGRRWLFDWRSTMKGKA, the amyloid nucleation score entry was “inactive”.

As to QCRHPGSRP, the amyloid nucleation score entry was “inactive”.

On to VCYKPFTSVYLVCTYHLFKS, for which the amyloid nucleation score result is “inactive”.

Consider IFACVLHVVTW, for which the amyloid nucleation score entry was “inactive”.

On to WYSRLRLEQMRKWCHRVL, for which the amyloid nucleation score result is “inactive”.

On to KTCIVCMLHL, for which the amyloid nucleation score worked out at 3.32 ± 0.068.

NVECSCDPEKTFIPKSVSLK registered an amyloid nucleation score of 0.102 ± 0.63.

In the case of DSGVSEQWGGGIELILSWCL, the amyloid nucleation score entry is “inactive”.

For PSTGLNSVKNRIDVSCGFR, the amyloid nucleation score result is “inactive”.

With SWGFHEWSVACQICRYVDRP, the amyloid nucleation score entry was “inactive”.

Regarding FKFALPHSNIGFTISSRFGC, the amyloid nucleation score was determined as 0.478 ± 0.16.

HFSYKSKCVGGRFLNDIDVY: the amyloid nucleation score entry was “inactive”.

As to SSTCTDL, the amyloid nucleation score entry is “inactive”.

For the substance FMGTRTKLMALVYQEELSRS, the amyloid nucleation score result was “inactive”.

As to NFLGAFRIPRLLRSLVALYL, the amyloid nucleation score entry was “inactive”.

As to RFNTDSQPAVMIVFRYNRLR, the amyloid nucleation score result is “inactive”.

Turning to GWYLYIVTG, the amyloid nucleation score entry is “inactive”.

Consider GSYYWGGIGFTSEI, for which the amyloid nucleation score turned out to be 0.846 ± 0.14.

Consider GPGNMAMNVRAVKSGYHIAG, for which the amyloid nucleation score entry is “inactive”.

Turning to YVLQTFEGSCVLKRLHIRFM, the amyloid nucleation score entry is “inactive”.

As for EFVVCTQCRVCDLIAFLGRN, the amyloid nucleation score is 2.84 ± 0.065.

In turn, KFVQSIIGHWNLGHMPCGSM came in with an amyloid nucleation score of 0.587 ± 0.17.

In the case of SNCNPEWQLLIMIDCYNYAL, the amyloid nucleation score result is “inactive”.

For CCCTNDMWTTGPNCS, the amyloid nucleation score was -0.432 ± 0.76.

As to GVSSCFWSSFEQKFMKLSSV, the amyloid nucleation score result is “inactive”.

In turn, TQNLNRRGKIRVVRDYIDYW returned an amyloid nucleation score of 0.554 ± 0.15.
